From article PMC8363759 (Cell reports, 2021)
Numbering of substitutions follows the chain as printed.

T1: GST-h5MP1 (human, UniProt Q9Y6E2 1-419)
T1 sequence (looked up): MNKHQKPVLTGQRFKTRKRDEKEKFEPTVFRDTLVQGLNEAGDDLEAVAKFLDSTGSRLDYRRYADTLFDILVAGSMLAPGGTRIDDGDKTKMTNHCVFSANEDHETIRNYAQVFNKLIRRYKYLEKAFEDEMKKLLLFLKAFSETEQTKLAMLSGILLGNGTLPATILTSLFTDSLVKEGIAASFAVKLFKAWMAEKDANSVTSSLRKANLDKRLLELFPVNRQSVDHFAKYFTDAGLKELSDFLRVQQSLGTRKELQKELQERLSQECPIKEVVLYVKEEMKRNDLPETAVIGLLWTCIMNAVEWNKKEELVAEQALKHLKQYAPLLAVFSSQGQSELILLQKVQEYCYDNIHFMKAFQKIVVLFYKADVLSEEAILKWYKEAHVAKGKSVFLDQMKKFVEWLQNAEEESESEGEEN

T2: h5MP1 (WT) (human, UniProt Q9Y6E2 1-419)
T2 sequence (looked up): T1 sequence (looked up)

T3: h5MP1-BN1 (human, UniProt Q9Y6E2 1-419, K380Q | K383Q | H386Q | K389Q | K391Q)
T3 sequence (looked up): T1 sequence (looked up) with K380Q, K383Q, H386Q, K389Q, K391Q

B1: GB-heIF3c_(20-102) (domain or fragment, human, UniProt Q99613 20-102, looked up)
chain: EELVTKPVGGNYGKQPLLLSEDEEDTKRVVRSAKDKRFEELTNLIRTIRNAMKIRDVTKCLEEFELLGKAYGKAKSIVDKEGV
B2: heIF2β_(53-136) (domain or fragment, human, UniProt P20042 53-136, looked up)
chain: DLEADEEDTRKKDASDDLDDLNFFNQKKKKKKTKKIFDIDEAEEGVKDLKIESDVQEPTEPEDDLDIMLGNKKKKKKNVKFPDE

How the values were obtained:
GST-h5MP1 = target: T1, GST-h5MP1; experiment: pull-down
h5MP1 (WT) = target: T2, h5MP1 (WT); experiment: ITC
h5MP1-BN1 = target: T3, h5MP1-BN1; experiment: ITC

Row | Binder | binding result (GST-h5MP1) | binding result (h5MP1 (WT)) | binding result (h5MP1-BN1)
1 | B1 | binds | – | –
2 | B2 | – | binds | binds
